Results taken from patent publication US20260055186A1 (REPERTOIRE IMMUNE MEDICINES, published 2026).
Where two headings read alike, the source gives them in different places. Blank lines part the entries; values can stand above or below the binder they belong to.

What was measured:
[1] = biological target: T1, human CD8 on human T cells (human, UniProt P01732 22-235); assay: cell-based or functional assay
[2] = biological target: T2, cynomolgus monkey CD8 on cynomolgus cells (cynomolgus monkey); assay: cell-based or functional assay
[3] = biological target: T1, human CD8 on human T cells; assay: flow cytometry, CD8+ T cells in human PBMCs, 30 min 37 °C, anti-IL-12p40
Experimental: (§1) Fusion proteins H6K3-IgG-IL12 (LC) and H6K3-IgG-IL12 (1×HC) were also evaluated for their ability to bind CD8-expressing cells in human and cynomolgus monkey PBMCs. Briefly, 5×10⁴ human PBMCs (StemCell Technologies) or cynomolgus monkey PBMCs (iQ Biosciences) were incubated with 7 serial 5-fold dilutions of one of the two aforementioned H6K3-IgG-IL12 constructs for 30 minutes at 37° C. Cells were washed twice with MACS buffer and stained with viability dye and fluorophore-conjugated antibodies against IL-12 and cell-surface markers for 20 minutes at 4° C. Cells were analyzed on a FACSCelesta using Diva software (BD Biosciences). Binding activity for all treatments was quantified and represented as the mean fluorescence intensity values of IL-12 on human CD8+ T cells and NK cells (FIGS. 17A-17B) and on cynomolgus monkey CD8+ T cells and NK cells (FIGS. 17C-17D). For the H6K3-IgG-IL12 (LC) treatments, results are also reported as the frequency of IL-12+CD8+ T cells and NK cells (FIG. 17E). As shown in FIGS. 17A-17D, both H6K3-IgG-IL12 (LC) and H6K3-IgG-IL12 (1×HC) were able to selectively bind human CD8+ T cells over NK cells at a range of concentrations. […] Where the cells were incubated with 0.128 nM of the IL-12 fusion constructs, the number of live CD45+ cells staining as CD8+ and IL-12 were assessed by flow cytometry. […]

[4] = biological target: T2, cynomolgus monkey CD8 on cynomolgus …; assay: flow cytometry, CD8+ T cells in cynomolgus PBMCs, 30 min 37 °C, anti-IL-12p40
Experimental: as §1

[5] = biological target: T1, human CD8 on human T cells; assay: flow cytometry, CD8+ T cells in human PBMCs, 30 min 37 °C, anti-human IL-12 AF647
Experimental: Fusion proteins H6K3-IgG-IL12 (LC) and H6K3-IgG-IL12 (1×HC) were evaluated for their ability to selectively bind human CD8+ T cells in PBMCs. Briefly, 5×10⁴ human PBMCs (StemCell Technologies) were incubated with 7 serial 5-fold dilutions of one of the two aforementioned H6K3-IgG-IL12 constructs for 30 minutes at 37° C. Cells were washed twice with MACS buffer and stained for 20 minutes at 4° C. with fluorophore-conjugated anti-CD3, anti-CD4, anti-CD8, anti-CD56, and anti-IL12 antibodies, and viability dye. Cells were analyzed on a FACSCelesta using Diva software (BD Biosciences). Binding activity was quantified and represented as the mean fluorescent intensity values of IL-12 on either CD8+ T cells or NK Cells. As shown in FIGS. 16A-16B, both H6K3-IgG-IL12 (LC) and H6K3-IgG-IL12 (1×HC) were able to selectively bind human CD8+ T cells over NK cells at a range of concentrations.

[6] = biological target: T1, human CD8 on human T cells; assay: cell-based or functional assay; remark: listed apart in the source
[7] = biological target: T1, human CD8 on human T cells; assay: cell-based or functional assay; remark: listed apart in the source
[8] = biological target: T1, human CD8 on human T cells; assay: flow cytometry, human PBMC co-cultured 1 h with the fusion protein, anti-IL2 staining gated on CD8 T cells (IL2 loading, MFI)
Experimental: (§2) Anti-human CD8-human IL2 molecules were evaluated for their ability to specifically bind and load IL2 on CD8 T cells. Briefly, 1×10⁵ human PBMC were co-cultured with indicated CD8-IL2 (human FC receptor) molecules from one of the concentrations ranging from 0.05 pM to 0.4 nM. Following one hour incubation with molecules, PBMC were washed twice with RPMI complete medium and washed once with PBS. The washed cells were stained with anti-IL2 (MQ1-17H12), anti-human kappa (MHK-49) and lineage surface markers CD3(UCHT1), CD4(SK3) and NK(HCD56) for 20 minutes, after which the cells were washed and analyzed using a flow cytometer. The binding affinity was quantified and represented as mean fluorescence intensity (MFI).

[9] = biological target: T1, human CD8 on human T cells; assay: flow cytometry, human PBMC co-cultured 1 h with the fusion protein, anti-human kappa staining on CD8 T cells (CD8 antibody binding, MFI)
Experimental: as §2

[10] = biological target: T1, human CD8 on human T cells; assay: cell-based or functional assay; remark: listed apart in the source
[11] = biological target: T1, human CD8 on human T cells; assay: flow cytometry, CD8+ T cells in human PBMCs, 1 h, PE anti-IL12
Experimental: Fusion proteins 02A01-IgG-IL12 (LC) and 03A01-IgG-IL12 (LC) were evaluated for their ability to specifically target IL12 to CD8⁺ T cells. […] The cells were incubated with media lacking a fusion protein as a negative control. Following 1 hour of incubation with the IL12 fusion constructs, the cells were washed once with complete RPMI medium and prepared for flow cytometry analysis. Cells were washed once with phosphate-buffered saline (PBS) containing 1% bovine serum albumin (PBS/BSA) and then stained with a 1:100 dilution of PE-conjugated anti-IL12 antibody (Clone No. C11.5; BioLegend Cat. No. 501807) in PBS/BSA. Following a 20 minute incubation at room temperature, the cells were washed once with PBS/BSA and then resuspended in PBS/BSA for analysis on a FACSCelesta using Diva software (BD Biosciences). Binding activity was quantified and represented as the mean fluorescent intensity values of IL-12 on either CD8⁺ T cells or NK cells. […] At a saturating dose, there was a 4- to 5-fold more IL-12 bound to CD8⁺ T cells than was bound to NK cells.

[12] = biological target: T1, human CD8 on human T cells; assay: flow cytometry on human CD8+ T cells, titration
Experimental: (§3) The 16 above-referenced humanized 03A01-derived anti-CD8 antibodies were screened for their ability to bind human CD8 by evaluating binding to CD8⁺ T cells. The non-humanized parent (“03-Parent”) and the non-humanized parent comprising a heavy chain D64E liability mutation (“03-Parent-VH-D64E”) were used as controls. […] Cells were washed with 1×phosphate buffered saline (PBS) containing 1 mg/mL bovine serum albumin (PBS/BSA) and then stained with a 1:100 dilution of DyLight650-conjugated anti-human IgG H+L polyclonal antibody (ThermoFisher cat. no. Sa5-10129) in PBS/BSA. Following a 20-30 min incubation at 4° C., the cells were washed once with PBS/BSA, and then resuspended in PBS/BSA for analysis on a FACSCelesta using Diva software (BD Biosciences). The resulting data were analyzed using FlowJo. Data were quantified and reported as Max fluorescence intensity (MFI) of human IgG-Fc. […] Complete replacement of the LCDR1 (antibodies comprising VK4) eliminated binding to the CD8⁺ T cells.
(§4) The binding affinities of five of the above-referenced humanized anti-CD8 antibodies to human CD8 were determined by evaluating binding to CD8 human T cells using the method described above. Binding to human CD8+ T cells was tested at 7 serial 5-fold dilutions of each humanized 03A01 variant (from 50 nM to 3.2 pM). The resulting data were analyzed using FlowJo.

[13] = biological target: T1, human CD8 on human T cells; assay: flow cytometry on human CD3+ T cells, apparent KD, 4PL fit
Experimental: (§5) The amino acid sequences of the resulting murine anti-CD8 antibodies 02A01, 03A01, 04D08, 05F10, and 11F05 are provided in Tables 1-3 herein above. These antibodies were recombinantly produced. Their binding affinity to CD8 expressed on the cell surface was measured by flow cytometry, and their respective binding affinities are reported in Table 8 and Table 9. Briefly, human or cynomolgus monkey CD3⁺ T cells were incubated with […] of anti-CD8 antibodies (from 250 nM to […]) for 30 minutes. Following the incubation, unbound antibodies were washed away, and the bound antibodies were detected with a AlexaFluor-647-labeled anti-human Fc detection antibody. The median fluorescence intensity of AlexaFluor-647 on the live cells was used to evaluate anti-CD8 antibody levels on the cell surface. Binding affinity (KD) values for anti-CD8 antibody T cell binding were determined with GraphPad Prism 7.0 using 4-Parameter logistic regression.

[14] = biological target: T1, human CD8 on human T cells; assay: flow cytometry on human CD8+ T cells, titration, apparent KD
Experimental: as §3, §4

[15] = biological target: T2, cynomolgus monkey CD8 on cynomolgus …; assay: flow cytometry on cynomolgus CD3+ T cells, apparent KD, 4PL fit
Experimental: as §5

T1 sequence (P01732 22-235): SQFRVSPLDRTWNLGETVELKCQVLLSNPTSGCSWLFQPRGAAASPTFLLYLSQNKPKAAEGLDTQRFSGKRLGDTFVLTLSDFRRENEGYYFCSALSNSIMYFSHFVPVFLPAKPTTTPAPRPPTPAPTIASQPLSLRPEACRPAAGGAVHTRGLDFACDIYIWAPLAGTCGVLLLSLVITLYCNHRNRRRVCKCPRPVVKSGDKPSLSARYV

B1: H6K3-IgG-IL12 (LC) (other)
VH: EVQLVQSGAEVKKPGATVKISCKASGYTFTDFTMHWVQQAPGKGLEWIGLVNPNNGGNIYAEKFQGRVTLTVDTSTSTAYMELSSLRSEDTAVYYCGRVPLYTSHGMDYWGQGTLVTVSS
VL: EIVLTQSPATLSLSPGERATISCRASESVDSYDINSMHWYQQKPGQAPRLLIYRASHLQSGIPARFSGSGSRTDFTLTISSLEPEDFATYYCQQSNEDPLTFGQGTKLEIK
notes: Humanized 02A01 VH6/VK3 IgG1 with human IL-12p70 on each light chain C-terminus; Fc with L234A, L235A, P329G, N297A; not tied to this name; also called hCD8IgG-IL12 (LC)
- EC50 of pSTAT4 signaling in human CD8+ T cells [1]: 3.3 pM
- EC50 of pSTAT4 signaling in cynomolgus CD8+ T cells [2]: 1.8 pM
- EC50 of pSTAT4 signaling in cynomolgus NK cells [2]: 2.4 pM
- EC50 (read off the curve) [3]: ~0.03 nM
- EC50 (read off the curve) [4]: ~0.05 nM
- EC50 (read off the curve) [5]: ~0.04 nM

B4: 03A01-IgG-IL12 (LC) (other)
VH: DVQFQESGPGLVKPSQSLSLTCTVTGYSITSDFAWNWIRQFPGNELEWMGYISYSGDTNYNPSLRSRISITRDTSKNQFFLQLDSVTTEDTATYYCTIRGYYTDSAFVFWGQGTLVTVSA
VL: DIQMTQSSSYLSVSLGGRVTITCKASDHINNWLAWYQQKPGNAPRLLISGATSLETGVPSRFTGSGSGLDYTLSITSLQTEDVATYYCQQYWNSPFTFGSGTKLEIK
notes: 03A01 IgG with human IL-12p70 linked to the C-terminus of each light chain; human IgG1 Fc with L234A, L235A, P329G, N297A; also called 03A01 IgG IL12p70 (LC)
- EC50 of pSTAT4 signaling in human CD8+ T cells [10]: 0.0147 nM
- EC50 (read off the curve) [11]: ~0.2 nM

B6: 02A01-IgG-IL12 (LC) (other)
VH: EVQLQQSGPELVKPGASLKISCKASGYTFTDFTMHWVKQSHGKSLEWIGLVNPNNGGNIYNQNFKGKATLTVDTSSSTAYMELRSLTSEDSSVYYCGRVPLYTSHGMDYWGQGTSVTVSS
VL: DIVLTQSPAFLAVSLGQRATISCRASESVDSYDINSMHWYQQKPGQPPKLLIYRASHLQSGIPARFSGSGSRTDFTLTINFVEADDVATYYCQQSNEDPLTFGAGTKLELK
notes: 02A01 IgG with human IL-12p70 linked to the C-terminus of each light chain; human IgG1 Fc with L234A, L235A, P329G, N297A; also called 02A01 IgG IL12p70 (LC)
- EC50 of pSTAT4 signaling in human CD8+ T cells [10]: 0.00272 nM
- EC50 (read off the curve) [11]: ~0.01 nM

Second part, the binder after the results:

- EC50 of pSTAT5 activation in human CD8+ T cells [6]: 0.246 pM
- EC50 of Ki67 expression (proliferation) in human CD8+ T cells [7]: 0.0551 nM
- EC50 (read off the curve) [8]: ~0.03 nM
- EC50 (read off the curve) [9]: ~0.03 nM
B2: hCD8 IgG IL2 (LC) (other)
VH: B1 VH
VL: B1 VL
notes: read as humanized 02A01-VH6-VK3; Wild type human IL-2 on each light chain C-terminus

- EC50 of pSTAT5 activation in human CD8+ T cells [6]: 0.448 pM
- EC50 of Ki67 expression (proliferation) in human CD8+ T cells [7]: 0.0689 nM
- EC50 (read off the curve) [8]: ~0.03 nM
- EC50 (read off the curve) [9]: ~0.03 nM
B3: hCD8 IgG IL2 1× (HC) (other)
VH: B1 VH
VL: B1 VL
notes: read as humanized 02A01-VH6-VK3; One wild type human IL-2 on one heavy chain C-terminus; also called hCD8 IgG-IL2(HC)

- Fold Change to Parental Apparent KD [12]: 1 fold
- Kd [13]: 0.86 nM
- Kd [14]: 0.926 nM
- Kd [15]: 1.77 nM
B5: Murine 03A01 (antibody, V domains shown)
VH: B4 VH
VL: B4 VL
notes: Recombinantly produced IgG; also called 03-parental; 03-Parent
